One test relates to hESC line SA002. Briefly: Real-time PCR after exposure to activin A or activin B. It is filed as cell-based, human. The settings on record: 100 ng/ml, 5 ng/ml bFGF, 5 days. As for the experimental part: Undifferentiated hESC line SA002 were exposed to either activin A (100 ng/ml) or activin B (100 ng/ml) in the presence of 5 ng/ml bFGF for 5 days and analyzed for gene expression.
mRNA expression of Foxa2, Sox17, CXCR4, Sox7, CDX2, AAT was measured by real-time PCR using the ABI/TaqMan method. In short, RNA was isolated from the cell cultures by using Qiagen's RNeasy system. cDNA was synthesized by using the ABI high capacity cDNA synthesis kit. RT-PCR was performed in a ABI 7500 by using TaqMan probe. The expression level was normalized to CREBBP expression.

The test system of another test is hBS cells. Briefly: Sox17/Sox7 immunostaining of Activin A treated hBS cell cultures. The conditions noted are these: after 4 days in Activin A; of the remaining cells. Format: cell-based, human. From the text: We used Activin A, and Activin A in combination with Wnt3a and/or FGF2 to generate DE. After 4 to 5 days in Stage I the hBS cell colony differentiated and genetic markers for early DE were examined using quantitative real-time real time-PCR (Q-PCR). Activin A induced a strong wave of early endoderm at day 3 to 5, and was highlighted by high expression levels of Sox17, HNF3beta (HNF3b or HNF3b) and Cxcr4 expression (FIG. 4) and then reduced to near baseline levels (data not shown). […] Furthermore they up regulate early liver markers like AFP or AAT. At this early stage in differentiation and development, this indicates the presence of extraembryonic endoderm (ExE) in intrinsically differentiating colonies (FIGS. 5 and 10). The expression data were confirmed by co-staining of Sox17/Sox7, Sox17/Cxcr4, Sox17/Oct4, Sox7/HNF3b (data not shown). […] The changes of gene expression after Activin A treatment were associated to morphological changes and distinct differentiation pattern of the colonies (FIG. 2). After 4 to 5 days induction with Activin A containing medium cells gathered together and formed a ring of epithelial cells around the colony. […]
Activin A induces definitive endoderm detected by a combination of Sox17+/Sox7−, 80-90% of the total cells in a Activin A or Activin A/FGF2 treated culture are estimated to be Sox17 positive and negative for Sox7 (manual counting in microscope). […]

B1: activin B: activin B, 100 ng/ml, substituted for activin A for induction of endoderm (protein, UniProt P09529 293-407, looked up)
Inhibin beta B chain: GLECDGRTNLCCRQQFFIDFRLIGWNDWIIAPTGYYGNYCEGSCPAYLAGVPGSASSFHTAVVNQYRMRGLNPGTVNSCCIPTKLSTMSMLYFDDEYNIVKRDVPNMIVEECGCA
modifications: Inhibin beta B chain
Consider B1, for which, in the test with hESC line SA002, the “mRNA expression of endodermal markers Foxa2, Sox17 and CXCR4 compared to activin A” value is on record as “either the same or even higher”; the “mRNA expression of extraembryonal markers Sox7, CDX2 and AAT compared to activin A” value is reported as “the same or lower”.

B2: Activin A: TGF-beta family member used at 100 ng/ml to induce definitive endoderm (protein, UniProt P08476 311-426, looked up)
Inhibin beta A chain: GLECDGKVNICCKKQFFVSFKDIGWNDWIIAPSGYHANYCEGECPSHIAGTSGSSLSFHSTVINHYRMRGHSPFANLKSCCVPTKLRPMSMLYYDDGQNIIKKDIQNMIVEECGCS
modifications: Inhibin beta A chain
notes: TGF-beta family member used at 100 ng/ml to induce definitive endoderm
Consider B2, for which, in the test on hBS cells, the Sox17 positive cells result is given as “more than 70%”.

For the origin of these results see patent publication US20100190202A1, “NOVEL POPULATION OF HEPATOCYTES DERIVED VIA DEFINITIVE ENDODERM (DE-HEP) FROM HUMAN BLASTOCYSTS STEM CELLS” (Cellartis AB, priority 2007, published 2010).
